# In patent publication US5077204A, “Yeast endopeptidase for basic amino-acid site cleavage, preparation and use” (Chiron Corporation, priority 1988, dated 1991):
# T1: KEX2 endopeptidase (kex2[YEp24-pJ2B] membranes) (Saccharomyces cerevisiae, UniProt P13134)
# T1 construct: not only includes the KEX2 gene, but also the necessary transcriptional and translational regulatory signals for expression in yeast; expressed in transfected cells; host or cells: S. cerevisiae XBH16-15A (MATalpha kex2-1) carrying YEp24-pJ2B
# T1 sequence (P13134 114-814): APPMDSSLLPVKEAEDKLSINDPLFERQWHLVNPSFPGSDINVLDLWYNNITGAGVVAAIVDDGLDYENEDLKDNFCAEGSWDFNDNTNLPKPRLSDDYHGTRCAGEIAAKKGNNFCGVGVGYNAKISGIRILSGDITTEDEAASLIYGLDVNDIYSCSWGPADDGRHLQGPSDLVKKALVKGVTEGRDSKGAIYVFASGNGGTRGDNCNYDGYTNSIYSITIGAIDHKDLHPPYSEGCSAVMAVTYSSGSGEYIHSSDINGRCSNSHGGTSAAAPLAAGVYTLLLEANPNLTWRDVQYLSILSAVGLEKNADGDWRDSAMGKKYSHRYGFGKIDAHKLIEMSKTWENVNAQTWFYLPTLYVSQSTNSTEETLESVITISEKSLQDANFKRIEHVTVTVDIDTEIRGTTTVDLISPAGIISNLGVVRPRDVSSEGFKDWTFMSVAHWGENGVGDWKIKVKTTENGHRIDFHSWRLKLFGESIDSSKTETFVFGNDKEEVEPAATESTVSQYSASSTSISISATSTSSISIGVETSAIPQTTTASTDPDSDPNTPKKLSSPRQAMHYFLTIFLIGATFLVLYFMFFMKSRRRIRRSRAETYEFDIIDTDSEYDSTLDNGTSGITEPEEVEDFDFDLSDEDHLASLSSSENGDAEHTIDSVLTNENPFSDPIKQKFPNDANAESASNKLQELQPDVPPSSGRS
# How the values were obtained:
# [1] = molecular target: T1, KEX2 endopeptidase (kex2[YEp24-pJ2B] membranes); assay: Endopeptidase activity in membranes from kex2 cells carrying multicopy plasmid pJ2B (over-produced specific endopeptidase); type: biochemical, S. cerevisiae
# Protocol: Permeabilization of whole yeast cells with the non-ionic detergent Brij 58, preparation of crude membrane fractions, and measurement of protein concentration were conducted by the methods described previously (Julius et al., 1983, supra), incorporated herein by reference. To measure peptidase activity, samples of permeabilized cells or membrane material were added to a reaction mixture containing 0.1-0.5 mM fluorogenic peptide substrate (added from a 20 mM stock dissolved in DMSO) and 200 mM HEPES-Tris (pH 7.0), in a final volume of 0.4 ml. Following incubation for 30 min at 37° C., whole cells were removed by centrifugation in a microfuge (Eppendorf) and membrane material was removed by Ba(OH)2 -ZnSO4 precipitation. The amount of fluorescence formed in the supernatant solution was determined in a fluorescence spectrophotometer (Perkin-Elmer, Model MPF-44B), set either at an excitation wavelength of 335 nm and an emission wavelength of 410 nm (for measurement of β-naphthylamine) or at an excitation wavelength of 380 nm and an emission wavelength of 460 nm (for measurement of 7-amino-4-methyl-coumarin, AMC). To determine the number of moles of substrate hydrolyzed, the fluorescence yield of samples was compared to a standard curve prepared with known concentrations of authentic AMC dissolved in the same buffer.
# Cells of strain XBH1615A that had been transformed with the plasmids
# indicated, or that contained pJ2B in integrated form, were grown in SCUra
# and membranes were prepared as described in the Experimental.
# Endopeptidase activity was assayed as described in the Experimental. All
# substrates tested were present at 0.1 mM.
# Endopeptidase activity was assayed using Boc--GlnArgArg--MCA as the
# substrate, as outlined in the Experimental. All inhibitors were added fro
# a 0.1 M stock dissolved in dimethyl sulfoxide.
# [2] = system: human proinsulin (alpha-factor leader-proinsulin fusion); assay: Processing of proinsulin in yeast transformed with KEX2 containing vectors; type: cell-based, yeast strains AB109 and AB103.1; details: yeast transformed with pYBCA5-KEX2 versus pYBCA5; cleavage between alpha-factor leader and proinsulin, B/C and C/A junctions
# Excerpt: Plasmids containing proinsulin and KEX2 genes (pYBCA5-KEX2 or pYBCA5-KEX4) or control plasmids with only proinsulin sequences (pYBCA5) or no insert (pCl/1) were used to transform kex2^- mutant yeast strain AB109 (Matα, kex2-1, ade2-1, his^-, leu2-3,112, trpl^-289, ura3-25 ura3-52, (KIL-k), cir° ) or KEX2^+ yeast strain AB103.1 (matα, pep4-3, leu2-3, leu2-112, ura3-52, his4-580, cir° ) following the procedure of Hinnen et al., Proc. Natl. Acad. Sci. USA (1978) 75:1929-1933. Transformants were grown in a low sulfate medium (LSM) containing 0.1 mM (NH4)2 SO4 until mid-exponential phase (OD660 nm 1-3), collected by centrifugation and resuspended in LSM containing 0.25 mCi of carrier free [ ^35 S]SO4^2- at an OD660 =2. After 10 min incubation, a 50-fold excess of (NH4)2 SO4 was added and cells were further incubated for 15-30 min. After centrifugation, proteins present in the cell free extract were precipitated with 12% trichloroacetic acid, 0.5 mg/ml deoxycholate. The precipitate was resuspended, reduced and alkylated and submitted to protein acrylamide gel electrophoresis (Laemmli, Nature (1970) 227:680). Gels were fixed, fluorographed, dried and exposed to Kodak XAR-5 film at -70° C.
molecule,measurement,setting,value
"KEX2 endopeptidase: yeast endopeptidase, product of the KEX2 gene, cleaving on the carboxyl side of a pair of basic amino acids (protein, UniProt P13134 114-814, looked up) Kexin: APPMDSSLLPVKEAEDKLSINDPLFERQWHLVNPSFPGSDINVLDLWYNNITGAGVVAAIVDDGLDYENEDLKDNFCAEGSWDFNDNTNLPKPRLSDDYHGTRCAGEIAAKKGNNFCGVGVGYNAKISGIRILSGDITTEDEAASLIYGLDVNDIYSCSWGPADDGRHLQGPSDLVKKALVKGVTEGRDSKGAIYVFASGNGGTRGDNCNYDGYTNSIYSITIGAIDHKDLHPPYSEGCSAVMAVTYSSGSGEYIHSSDINGRCSNSHGGTSAAAPLAAGVYTLLLEANPNLTWRDVQYLSILSAVGLEKNADGDWRDSAMGKKYSHRYGFGKIDAHKLIEMSKTWENVNAQTWFYLPTLYVSQSTNSTEETLESVITISEKSLQDANFKRIEHVTVTVDIDTEIRGTTTVDLISPAGIISNLGVVRPRDVSSEGFKDWTFMSVAHWGENGVGDWKIKVKTTENGHRIDFHSWRLKLFGESIDSSKTETFVFGNDKEEVEPAATESTVSQYSASSTSISISATSTSSISIGVETSAIPQTTTASTDPDSDPNTPKKLSSPRQAMHYFLTIFLIGATFLVLYFMFFMKSRRRIRRSRAETYEFDIIDTDSEYDSTLDNGTSGITEPEEVEDFDFDLSDEDHLASLSSSENGDAEHTIDSVLTNENPFSDPIKQKFPNDANAESASNKLQELQPDVPPSSGRS",pH optimum,[1],7.0-7.5
same,Activity at pH 5.0,[1]; pH 5.0,little activity detected
same,Activity at pH 8.5,[1]; pH 8.5,about half-maximal activity
same,Processing of proinsulin (autoradiography of secreted insulin-related bands),[2],able to process proinsulin at specific cleavage sites
